Test results taken from publication PMC2788276 (Protein Science : A Publication of the Protein Society, 2009).

Legend:
cross-linking = target: the molecule itself; assay: cross-linking
[1] = target: HCoV-OC43 N301-448 (C-terminal domain) (Human coronavirus OC43, UniProt P33469 301-448); assay: SPR
[2] = target: HCoV-OC43 N1-173 (N-terminal domain) (Human coronavirus OC43, UniProt P33469 1-173); assay: SPR
[3] = target: HCoV-OC43 N233-300 (central linker) (Human coronavirus OC43, UniProt P33469 233-300); assay: SPR

HCoV-OC43 N1-173 (N-terminal domain), sequence (P33469 1-173): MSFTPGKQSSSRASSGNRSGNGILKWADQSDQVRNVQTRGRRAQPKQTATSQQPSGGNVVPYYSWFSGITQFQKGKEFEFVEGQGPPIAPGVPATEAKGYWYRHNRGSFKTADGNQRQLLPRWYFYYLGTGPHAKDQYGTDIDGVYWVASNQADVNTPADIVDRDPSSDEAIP

Row | Binder | binding result (cross-linking) | binding result [1] | Kd [2] | Kd [3]
1 | HCoV‐OC43 N protein, residues 233–448 (domain or fragment) ADQIASLVLAKLGKDATKPQQVTKHTAKEVRQKILNKPRQKRSPNKQCTVQQCFGKRGPNQNFGGGEMLKLGTSDPQFPILAELAPTAGAFFFGSRLELAKVQNLSGNPDEPQKDVYELRYNGAIRFDSTLSGFETIMKVLNENLNAYQQQDGMMNMSPKPQRQRGHKNGQGENDNISVAVPKSRVQQNKSRELTAEDISLLKKMDEPYTEDTSEI | binds | – | – | –
2 | UCUAAACUCUAAACUCUAAACUCUAAAC (ssRNA) [(UCUAAAC)4 intergenic repeat RNA] | – | no binding | 68.9 ± 8.4 nM | 64.1 ± 7.2 nM
